Biological target: recombinant XIAP, I. scapularis (as used in the native gel, the plate-coated ELISA and the ubiquitylation assay) (I. scapularis)
Test: ELISA; 0.2 μg of XIAP coated on the plate (0.5 M carbonate-bicarbonate pH 9.5); increasing concentrations of Bendless, room temperature 1 hour; detected with α-UbcH13

## recombinant Bendless, I. scapularis (enzyme)
  concentration at saturation of binding: 9.1 µM

From publication PMC5316886
